US20080292632A1 (US Dept. of Health and Human Services, published 2008)
Where two headings read alike, the source gives them in different places.

What was measured:
[1] = target: T1, IRTA4 extracellular domain-Fc fusion protein (human, UniProt Q96LA5 20-401); test: IRTA Fc-fusion
T1 construct: Whole entry named; also called IRTA4-Fc; IRTA4 (Fc-fusion); not shown: human IgG1 hinge and Fc
T1 sequence: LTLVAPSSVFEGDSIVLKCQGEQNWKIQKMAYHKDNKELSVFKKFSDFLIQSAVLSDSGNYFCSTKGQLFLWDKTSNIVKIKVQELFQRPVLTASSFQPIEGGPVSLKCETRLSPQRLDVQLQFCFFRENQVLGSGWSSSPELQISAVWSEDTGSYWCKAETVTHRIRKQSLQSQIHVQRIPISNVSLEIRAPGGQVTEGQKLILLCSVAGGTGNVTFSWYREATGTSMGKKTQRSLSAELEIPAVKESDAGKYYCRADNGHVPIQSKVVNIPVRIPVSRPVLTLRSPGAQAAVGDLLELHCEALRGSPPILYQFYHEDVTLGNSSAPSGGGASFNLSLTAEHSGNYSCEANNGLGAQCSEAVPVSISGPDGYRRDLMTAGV
Protocol: (§1) Each Fc-fusion protein indicated on the top of the column was captured on ELISA plates using secondary antibody (goat anti-human IgG). After washing, 100 ng/50 μl/well of MAbs were added, followed by HRP-labeled goat anti-mouse IgG and TMBZ substrate. The signals in ELISA were normalized for the amounts of each Fc-fusion protein on the plates using HRP-goat anti-human Fc. The controls are MAbs 9E10 (anti-myc tag, IgG1), BerH2 (anti-CD30, IgG1), T408 (anti-CD30, IgG2a), T420 (anti-CD30, IgG2b) and HRP-goat anti-human Fc (1/2400 dilution). […] Two days after transfection, the cells were harvested and incubated with 200 ng/100 μl of each MAb, followed by PE-conjugated goat anti-mouse IgG F(ab′)2. […] In the positive control panels, the MAbs cross-reactive to other IRTAs were used. They are F26 (anti-IRTA1 and anti-IRTA2, IgG2b), F109 (anti-IRTA3, IgG2b), F47 (anti-IRTA4, IgG2a), and F69 (anti-IRTA5, IgG2a). BerH2 (anti-CD30, IgG1) was also used. “+” indicates more than 1.5-fold than that of the control; “++” indicates more than 10-fold mean fluorescence intensity than that of the negative control.
(§2) ELISA. In a typical indirect ELISA for the screening of hybridomas, microtiter plates (MaxiSorp; Nalge Nunc, Rochester, N.Y.) were coated with 100 ng/50 μl/well of goat anti-human IgG in phosphate buffered saline (PBS) for 2 hours at room temperature. Next, 50 ng/100 μl/well of IRTA2-Fc in blocking buffer (25% DMEM, 5% FBS, 25 mM HEPES, 0.5% bovine serum albumin, 0.1% sodium azide in PBS) was added to each well and incubated for 2 hours at room temperature. After washing with PBS containing 0.05% Tween 20, 50 μl of the hybridoma supernatants were added and incubated for 2 hours at room temperature. After washing, the bound MAbs were detected by a 2-hour incubation with horseradish peroxidase (HRP)-labeled goat anti-mouse IgG (Jackson ImmunoResearch, Grove, Pa.) followed by tetramethylbenzidine (TMB) substrate kit (Pierce, Rockford, Ill.). In some experiments, other IRTA-Fc fusion proteins were used instead of IRTA2-Fc.

[2] = target: T2, IRTA5 extracellular domain-Fc fusion protein (human, UniProt Q96LA6 17-307); test: IRTA Fc-fusion
T2 construct: Whole entry named; also called IRTA5-Fc; IRTA5 (Fc-fusion); not shown: human IgG1 hinge and Fc
T2 sequence: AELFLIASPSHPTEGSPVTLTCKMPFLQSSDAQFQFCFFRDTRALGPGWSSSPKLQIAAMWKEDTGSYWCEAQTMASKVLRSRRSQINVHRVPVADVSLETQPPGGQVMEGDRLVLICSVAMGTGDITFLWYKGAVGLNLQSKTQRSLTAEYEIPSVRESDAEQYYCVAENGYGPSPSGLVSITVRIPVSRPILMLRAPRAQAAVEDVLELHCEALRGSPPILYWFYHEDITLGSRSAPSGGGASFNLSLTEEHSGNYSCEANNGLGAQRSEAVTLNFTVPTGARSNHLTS
Protocol: as §1, §2

[3] = target: T3, IRTA2 extracellular domain-Fc fusion protein (human, UniProt Q96RD9 16-851); test: equilibrium ELISA (Friguet)
T3 construct: extracellular domain; also called IRTA2-Fc; IRTA2-HFc; not shown: human IgG1 hinge and Fc
T3 sequence (looked up): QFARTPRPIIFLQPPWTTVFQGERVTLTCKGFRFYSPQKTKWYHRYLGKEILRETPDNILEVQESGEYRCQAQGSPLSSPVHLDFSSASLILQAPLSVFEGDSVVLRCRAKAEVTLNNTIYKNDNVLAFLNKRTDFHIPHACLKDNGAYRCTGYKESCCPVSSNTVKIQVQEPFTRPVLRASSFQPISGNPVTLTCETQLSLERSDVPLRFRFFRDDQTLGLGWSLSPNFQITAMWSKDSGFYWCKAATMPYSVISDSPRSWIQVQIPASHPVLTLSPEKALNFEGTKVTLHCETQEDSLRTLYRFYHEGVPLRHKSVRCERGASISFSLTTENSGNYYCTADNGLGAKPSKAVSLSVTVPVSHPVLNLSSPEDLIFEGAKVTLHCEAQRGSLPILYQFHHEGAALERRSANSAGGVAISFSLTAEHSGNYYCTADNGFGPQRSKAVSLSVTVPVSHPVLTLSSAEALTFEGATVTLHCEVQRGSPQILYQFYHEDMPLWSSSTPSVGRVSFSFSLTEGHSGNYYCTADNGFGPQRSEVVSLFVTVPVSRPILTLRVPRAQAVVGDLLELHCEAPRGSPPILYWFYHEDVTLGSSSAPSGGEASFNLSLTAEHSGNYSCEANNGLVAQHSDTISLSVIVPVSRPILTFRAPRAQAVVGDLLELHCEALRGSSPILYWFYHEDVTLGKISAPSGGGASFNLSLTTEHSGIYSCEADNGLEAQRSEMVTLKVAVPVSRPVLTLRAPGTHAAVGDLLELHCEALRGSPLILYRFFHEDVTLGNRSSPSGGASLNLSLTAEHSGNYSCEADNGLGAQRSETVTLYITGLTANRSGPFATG
Protocol: as §2
(§3) Affinity Determination. Affinities (dissociation constant, Kd) of the anti-IRTA2 MAbs to IRTA2-Fc were determined by ELISA as previously described (Friguet et al., J Immunol Methods 77:305-19, 1985). Briefly, each MAb was incubated with various concentrations of IRTA2-Fc at room temperature for 20 hours to reach equilibrium; then the amount of MAb that remains unbound at equilibrium was measured by the indirect ELISA as described above.

[4] = target: T3, IRTA2 extracellular domain-Fc fusion …; test: equilibrium ELISA (Friguet); remark: listed apart in the source
Protocol: as §2, §3

B1: F25 (antibody, IgG2a, V domains shown)
VH: EVQLQQSGPELVKPGTSVKMSCKASGYSFTGYFMNWMMQNHGKSLEWIGRINLYNGDTFYNQKFKDKATLTVDKSSNTVHMEFRSLASEDSAVYYCASSLYYFDYWGQGTTFTVSS
VL: DIVMTQSHKFMSTSVGDRVNITCKASQDVGTNVAWYQQKPGQSPKLLIYWASTRQTGVPDRFTGSGSGTDFTLTISNVQSEDLSDYFCQQYSSYPLTFGAGTKLELKR
notes: mouse hybridoma MAb, IgG2a, kappa; also called MAb F25; biotin-MAb F25
binding result [1]: no binding
binding result [2]: no binding
Kd [3]: 1.2 nM
Kd [4]: 1.2 nM
